Experimental data from doi:10.1101/2022.09.03.506465 (bioRxiv, 2022).

T1: TSEN54, subunit of full-length, catalytically inactive human TSEN (human, UniProt Q7Z6J9 1-526)
T1 sequence (looked up): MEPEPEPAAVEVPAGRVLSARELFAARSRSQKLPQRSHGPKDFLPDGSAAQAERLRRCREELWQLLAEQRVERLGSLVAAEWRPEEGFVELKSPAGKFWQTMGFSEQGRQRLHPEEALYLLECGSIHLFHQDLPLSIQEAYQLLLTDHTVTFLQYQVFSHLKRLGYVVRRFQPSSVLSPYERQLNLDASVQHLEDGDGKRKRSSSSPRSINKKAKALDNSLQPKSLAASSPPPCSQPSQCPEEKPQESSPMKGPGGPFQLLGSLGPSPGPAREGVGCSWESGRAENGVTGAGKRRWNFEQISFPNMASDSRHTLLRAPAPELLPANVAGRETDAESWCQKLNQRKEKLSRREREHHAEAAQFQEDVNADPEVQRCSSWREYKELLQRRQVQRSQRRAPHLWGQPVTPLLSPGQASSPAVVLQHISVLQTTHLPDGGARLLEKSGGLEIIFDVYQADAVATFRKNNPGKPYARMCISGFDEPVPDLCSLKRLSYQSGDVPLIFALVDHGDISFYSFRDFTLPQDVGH

B1: TSEN34^H255F, subunit of full-length, catalytically inactive human TSEN (natural protein, UniProt Q9BSV6 1-310, looked up)
chain: MLVVEVANGRSLVWGAEAVQALRERLGVGGRTVGALPRGPRQNSRLGLPLLLMPEEARLLAEIGAVTLVSAPRPDSRHHSLALTSFKRQQEESFQEQSALAAEARETRRQELLEKITEGQAAKKQKLEQASGASSSQEAGSSQAAKEDETSDGQASGEQEEAGPSSSQAGPSNGVAPLPRSALLVQLATARPRPVKARPLDWRVQSKDWPHAGRPAHELRYSIYRDLWERGFFLSAAGKFGGDFLVYPGDPLRFFAHYIAQCWAPEDTIPLQDLVAAGRLGTSVRKTLLLCSPQPDGKVVYTSLQWASLQ
B2: TSEN15, subunit of full-length, catalytically inactive human TSEN (natural protein, UniProt Q8WW01 1-171, looked up)
chain: MEERGDSEPTPGCSGLGPGGVRGFGDGGGAPSWAPEDAWMGTHPKYLEMMELDIGDATQVYVAFLVYLDLMESKSWHEVNCVGLPELQLICLVGTEIEGEGLQTVVPTPITASLSHNRIREILKASRKLQGDPDLPMSFTLAIVESDSTIVYYKLTDGFMLPDPQNISLRR
B3: TSEN2^H377F, subunit of full-length, catalytically inactive human TSEN (natural protein, UniProt Q8NCE0 1-465, looked up)
chain: MAEAVFHAPKRKRRVYETYESPLPIPFGQDHGPLKEFKIFRAEMINNNVIVRNAEDIEQLYGKGYFGKGILSRSRPSFTISDPKLVAKWKDMKTNMPIITSKRYQHSVEWAAELMRRQGQDESTVRRILKDYTKPLEHPPVKRNEEAQVHDKLNSGMVSNMEGTAGGERPSVVNGDSGKSGGVGDPREPLGCLQEGSGCHPTTESFEKSVREDASPLPHVCCCKQDALILQRGLHHEDGSQHIGLLHPGDRGPDHEYVLVEEAECAMSEREAAPNEELVQRNRLICRRNPYRIFEYLQLSLEEAFFLVYALGCLSIYYEKEPLTIVKLWKAFTVVQPTFRTTYMAYHYFRSKGWVPKVGLKYGTDLLLYRKGPPFYFASYSVIIELVDDHFEGSLRRPLSWKSLAALSRVSVNVSKELMLCYLIKPSTMTDKEMESPECMKRIKVQEVILSRWVSSRERSDQDDL

Experiments:
[1] = biological target: T1, TSEN54, subunit of full-length, …; assay: cryo-EM structure
[2] = biological target: B1; assay: cryo-EM structure

binding result [1]	binding result [2]	Binder
binds	–	B1
–	binds	B2
binds	–	B3
